Data set [1] has as its target T1, XgrDyP (Xylaria grammica, UniProt A0A439DJS1).
T1 construct: gene EKO27_g488; wild-type, natively secreted, purified from Xylaria grammica culture liquid (AEX, SEC, MonoQ); 49 kDa on SDS-PAGE; heme protein
T1 sequence (A0A439DJS1 1-493): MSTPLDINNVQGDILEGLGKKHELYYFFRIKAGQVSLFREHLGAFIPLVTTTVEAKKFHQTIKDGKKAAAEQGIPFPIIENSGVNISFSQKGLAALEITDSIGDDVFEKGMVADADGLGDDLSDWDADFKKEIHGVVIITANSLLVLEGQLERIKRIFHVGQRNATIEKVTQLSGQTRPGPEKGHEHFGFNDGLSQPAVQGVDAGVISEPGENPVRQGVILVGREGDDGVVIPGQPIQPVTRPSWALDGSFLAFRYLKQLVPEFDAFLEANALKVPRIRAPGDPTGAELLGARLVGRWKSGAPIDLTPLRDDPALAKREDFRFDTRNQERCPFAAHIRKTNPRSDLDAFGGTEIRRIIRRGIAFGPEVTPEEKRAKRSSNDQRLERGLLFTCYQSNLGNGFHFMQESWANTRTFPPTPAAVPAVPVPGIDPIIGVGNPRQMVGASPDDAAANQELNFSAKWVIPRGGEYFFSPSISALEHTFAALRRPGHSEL
The data set is described as follows: spectrophotometric decolorization at […] nm, Lineweaver-Burk. It is filed as biochemical. Particulars: apparent; 50 mM sodium citrate pH 4.5, H2O2 co-substrate held constant, room temperature.

Substrate in data set [2]: CCn1c(=NN=c2sc3cc(S(=O)(=O)O)ccc3n2CC)sc2cc(S(=O)(=O)O)ccc21
The data set is described as follows: purified protein. As to conditions: apparent, 50 mM sodium citrate pH 4.5, H2O2 co-substrate held constant, room temperature. The data set is classed as biochemical, Xylaria grammica.

Substrate in data set [3]: COc1cccc(OC)c1O
In words: purified protein. It is filed as biochemical, Xylaria grammica. Particulars: apparent, 50 mM sodium citrate pH 4.5, H2O2 co-substrate held constant, room temperature.

Drawing on PMC8469222, “First Dye-Decolorizing Peroxidase from an Ascomycetous Fungus Secreted by Xylaria grammica” (Biomolecules, 2021), this text covers Km, kcat and kcat/Km for 2 molecules.

As to `Nc1c(S(=O)(=O)O)cc(Nc2ccc(S(=O)(=O)O)c(Nc3nc(Cl)nc(Nc4cccc(S(=O)(=O)O)c4)n3)c2)c2c1C(=O)c1ccccc1C2=O` [RBlue5], the Km in data set [1] turned out to be 41 µM.

B1: XgrDyP (Xylaria grammica) (protein)
chain: MSTPLDINNVQGDILEGLGKKHELYYFFRIKAGQVSLFREHLGAFIPLVTTTVEAKKFHQTIKDGKKAAAEQGIPFPIIENSGVNISFSQKGLAALEITDSIGDDVFEKGMVADADGLGDDLSDWDADFKKEIHGVVIITANSLLVLEGQLERIKRIFHVGQRNATIEKVTQLSGQTRPGPEKGHEHFGFNDGLSQPAVQGVDAGVISEPGENPVRQGVILVGREGDDGVVIPGQPIQPVTRPSWALDGSFLAFRYLKQLVPEFDAFLEANALKVPRIRAPGDPTGAELLGARLVGRWKSGAPIDLTPLRDDPALAKREDFRFDTRNQERCPFAAHIRKTNPRSDLDAFGGTEIRRIIRRGIAFGPEVTPEEKRAKRSSNDQRLERGLLFTCYQSNLGNGFHFMQESWANTRTFPPTPAAVPAVPVPGIDPIIGVGNPRQMVGASPDDAAANQELNFSAKWVIPRGGEYFFSPSISALEHTFAALRRPGHSEL
notes: wild-type, natively secreted, purified from Xylaria grammica culture liquid (AEX, SEC, MonoQ); 49 kDa on SDS-PAGE; heme protein
B1: in data set [2], the Km worked out at 41 µM, the kcat was determined as 12 s⁻¹ and the kcat/Km was 287000 M⁻¹ s⁻¹. Further, in data set [3], the Km is listed as 12 µM, the kcat is 29 s⁻¹ and the specificity constant (kcat/Km) stood at 2.5e+06 M⁻¹ s⁻¹.
